# B1: Protein PTHB1 (Homo sapiens), Q3SYG4 (parent)
# chain: MSLFKARDWWSTILGDKEEFDQGCLCLANVDNSGNGQDKIIVGSFMGYLRIFSPHPAKTGDGAQAEDLLLEVDLRDPVLQVEVGKFVSGTEMLHLAVLHSRKLCVYSVSGTLGNVEHGNQCQMKLMYEHNLQRTACNMTYGSFGGVKGRDLICIQSMDGMLMVFEQESYAFGRFLPGFLLPGPLAYSSRTDSFLTVSSCQQVESYKYQVLAFATDADKRQETEQQKLGSGKRLVVDWTLNIGEQALDICIVSFNQSASSVFVLGERNFFCLKDNGQIRFMKKLDWSPSCFLPYCSVSEGTINTLIGNHNNMLHIYQDVTLKWATQLPHIPVAVRVGCLHDLKGVIVTLSDDGHLQCSYLGTDPSLFQAPNVQSRELNYDELDVEMKELQKIIKDVNKSQGVWPMTEREDDLNVSVVVSPNFDSVSQATDVEVGTDLVPSVTVKVTLQNRVILQKAKLSVYVQPPLELTCDQFTFEFMTPDLTRTVSFSVYLKRSYTPSELEGNAVVSYSRPTDRNPDGIPRVIQCKFRLPLKLICLPGQPSKTASHKITIDTNKSPVSLLSLFPGFASQSDDDQVNVMGFHFLGGARITVLASKTSQRYRIQSEQFEDLWLITNELILRLQEYFEKQGVKDFACSFSGSIPLQEYFELIDHHFELRINGEKLEELLSERAVQFRAIQRRLLARFKDKTPAPLQHLDTLLDGTYKQVIALADAVEENQGNLFQSFTRLKSATHLVILLIALWQKLSADQVAILEAAFLPLQEDTQELGWEETVDAAISHLLKTCLSKSSKEQALNLNSQLNIPKDTSQLKKHITLLCDRLSKGGRLCLSTDAAAPQTMVMPGGCTTIPESDLEERSVEQDSTELFTNHRHLTAETPRPEVSPLQGVSE
# partner: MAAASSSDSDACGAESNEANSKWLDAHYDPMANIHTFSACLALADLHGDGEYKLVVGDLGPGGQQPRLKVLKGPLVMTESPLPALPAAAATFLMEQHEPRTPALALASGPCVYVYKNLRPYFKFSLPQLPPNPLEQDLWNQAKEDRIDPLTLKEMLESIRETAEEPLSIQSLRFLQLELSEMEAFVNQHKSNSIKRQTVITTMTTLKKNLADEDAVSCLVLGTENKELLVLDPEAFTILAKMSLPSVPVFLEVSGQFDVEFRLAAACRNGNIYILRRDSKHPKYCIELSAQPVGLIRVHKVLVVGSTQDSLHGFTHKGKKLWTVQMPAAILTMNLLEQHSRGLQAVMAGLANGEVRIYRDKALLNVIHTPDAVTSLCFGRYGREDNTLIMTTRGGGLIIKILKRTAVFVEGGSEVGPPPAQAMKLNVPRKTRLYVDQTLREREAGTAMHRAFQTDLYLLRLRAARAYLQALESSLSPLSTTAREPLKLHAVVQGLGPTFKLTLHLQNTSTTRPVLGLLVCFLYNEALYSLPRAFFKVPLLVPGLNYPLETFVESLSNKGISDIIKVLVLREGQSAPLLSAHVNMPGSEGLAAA
# Variants of: B1
# Conditions: with bbs1_human BBS1, Q8NFJ9
row,effect of a mutation on the interaction,Variant
1,with no effect,L793E
2,with no effect,F632A
3,with no effect,L500A
4,with no effect,V424K
5,with no effect,V461E
6,with no effect,L465E
7,with no effect,L465A
8,with no effect,A746K
9,with no effect,S777E
10,with no effect,S777A
11,with no effect,H778A
12,with no effect,Y490A
13,with no effect,A592K
14,with no effect,A831K
15,disrupting interaction strength,P840K
16,with no effect,D762K
17,with no effect,D762A
18,with no effect,F864A
19,with no effect,H732E
20,with no effect,H732K
21,with no effect,Y460A
22,with no effect,P847A
23,with no effect,P847E

row,effect of a mutation on the interaction,Variant
1,with no effect,S797K
2,with no effect,S797A
3,with no effect,D571K
4,with no effect,D571A
5,with no effect,L491E
6,with no effect,E862K
7,with no effect,L825K
8,with no effect,S788E
9,with no effect,D711E
10,disrupting interaction strength,T482P
11,with no effect,L752A
12,with no effect,L681A
13,with no effect,L681E
14,disrupting interaction strength,G585R
15,with no effect,S729A
16,with no effect,F563A
17,with no effect,Y645E
18,with no effect,E501A
19,with no effect,T589E
20,with no effect,C525A
21,with no effect,I550E
22,with no effect,K526E
23,with no effect,P758K

row,effect of a mutation on the interaction,Variant
1,with no effect,Q883K
2,with no effect,G538K
3,with no effect,Q677K
4,with no effect,R587K
5,with no effect,L616E
6,with no effect,F606E
7,with no effect,V413E
8,with no effect,G718A
9,with no effect,S494K
10,with no effect,G822E
11,with no effect,Q524K
12,with no effect,E848K
13,with no effect,R483K
14,with no effect,V772E
15,with no effect,V772K
16,with no effect,E622A
17,with no effect,R683K
18,with no effect,F646E
19,with no effect,R656K
20,with no effect,Q621A
21,with no effect,T874E
22,with no effect,E499A
23,with no effect,K454E

row,effect of a mutation on the interaction,Variant
1,with no effect,P881E
2,disrupting interaction strength,F580A
3,with no effect,E406K
4,with no effect,Y508A
5,with no effect,L882K
6,with no effect,Q597E
7,with no effect,V838E
8,with no effect,V713K
9,with no effect,E761A
10,disrupting interaction strength,G841E
11,with no effect,I812K
12,disrupting interaction strength,S545N
13,with no effect,I601A
14,with no effect,V430E
15,with no effect,Q858E
16,with no effect,E878A
17,with no effect,T496E
18,with no effect,L559A
19,with no effect,Q574K
20,with no effect,L662A
21,with no effect,L662E
22,with no effect,L863A
23,with no effect,Q798E

row,effect of a mutation on the interaction,Variant
1,with no effect,K661E
2,with no effect,T428E
3,with no effect,C535A
4,with no effect,I534K
5,with no effect,C826A
6,with no effect,L814A
7,with no effect,E887K
8,with no effect,V432A
9,with no effect,I801K
10,with no effect,K704E
11,with no effect,K704A
12,with no effect,R619E
13,with no effect,R619K
14,with no effect,S498E
15,with no effect,P520E
16,with no effect,N412E
17,with no effect,G628E
18,disrupting interaction strength,T688K
19,with no effect,R679A
20,with no effect,D804K
21,with no effect,D804A
22,disrupting interaction strength,D804F
23,with no effect,S635K

row,effect of a mutation on the interaction,Variant
1,with no effect,L618K
2,with no effect,H867A
3,with no effect,Q426E
4,with no effect,Q426K
5,with no effect,D422K
6,with no effect,H869K
7,with no effect,S806E
8,with no effect,L870K
9,with no effect,K626E
10,with no effect,G433A
11,with no effect,M839A
12,with no effect,M839E
13,with no effect,S820A
14,with no effect,M477K
15,with no effect,S558K
16,with no effect,F684E
17,with no effect,N658A
18,with no effect,Q471A
19,with no effect,V522K
20,with no effect,V522A
21,with no effect,I776K
22,with no effect,V734E
23,with no effect,Q722A

row,effect of a mutation on the interaction,Variant
1,disrupting interaction strength,Q722T
2,with no effect,E873K
3,with no effect,P419A
4,with no effect,P419E
5,with no effect,L737E
6,with no effect,I588K
7,with no effect,G823A
8,with no effect,V577K
9,with no effect,L609A
10,with no effect,P464A
11,with no effect,D429E
12,with no effect,D429K
13,with no effect,S849A
14,with no effect,L680E
15,with no effect,L780K
16,with no effect,L780A
17,with no effect,L779A
18,with no effect,S414A
19,disrupting interaction strength,E654G
20,with no effect,P530E
21,with no effect,F756A
22,with no effect,L740K
23,disrupting interaction strength,E753K

row,effect of a mutation on the interaction,Variant
1,with no effect,A567E
2,with no effect,E607A
3,with no effect,G579K
4,with no effect,D686A
5,with no effect,E765A
6,disrupting interaction strength,G565S
7,disrupting interaction strength,G565P
8,with no effect,G565K
9,with no effect,N614E
10,with no effect,N614A
11,with no effect,D513E
12,with no effect,R818K
13,with no effect,K810E
14,with no effect,T549E
15,with no effect,R669E
16,with no effect,D435A
17,with no effect,I612K
18,with no effect,S723E
19,with no effect,S596A
20,disrupting interaction strength,P691S
